Results as given in the supplement of paper PMC10567573.

B1: KRT13 (parent)
chain: TPGIDLTRVLAEMREQYEAMAERN
B2: FBXO34 (parent)
chain: PRYREDPCKQCKKKYVKGDVSLCR

Variants of: B1
Assay: protein stability index of a GFP-peptide fusion (GPS, HEK-293T) (PSI 1-6); higher = more stable
Details: c terminus: a fixed tail appended
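Also: lentivirally expressed fusions sorted by FACS into six bins by GFP to DsRed ratio, PSI derived from sequencing read proportions per bin multiplied by bin number.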

| Variant | protein stability index |
| --- | --- |
| T1Q | 3.13 |
| T1V | 2.67 |
| T1L | 2.71 |
| T1P | 4.16 |
| T1W | 3.5 |
| T1E | 4.3 |
| T1M | 3.9 |
| T1C | 3.45 |
| T1N | 4.26 |
| T1K | 3.85 |
| T1H | 4.28 |
| T1S | 3.49 |
| T1F | 3.27 |
| T1D | 3.47 |
| T1I | 4.36 |
| T1Y | 4.34 |
| T1G | 4.59 |
| P2S | 3.9 |
| P2C | 3.36 |
| P2T | 3.81 |

| Variant | protein stability index |
| --- | --- |
| P2N | 4.05 |
| P2E | 3.16 |
| P2L | 2.86 |
| P2I | 2.54 |
| P2D | 3.69 |
| P2Y | 3.69 |
| P2F | 2.79 |
| P2W | 3.75 |
| P2K | 3.79 |
| P2H | 4.41 |
| P2V | 2.6 |
| P2A | 4.17 |
| P2M | 2.97 |
| G3Y | 2.34 |
| G3L | 2.81 |
| G3K | 1.99 |
| G3D | 3.1 |
| G3V | 2.11 |
| G3Q | 3.23 |
| G3P | 2.67 |

| Variant | protein stability index |
| --- | --- |
| G3R | 3.39 |
| G3H | 3.35 |
| G3W | 3.37 |
| G3C | 2.63 |
| G3E | 2.78 |
| G3F | 2.28 |
| G3I | 3.38 |
| G3N | 3.12 |
| G3T | 2.96 |
| G3M | 2.38 |
| G3A | 3.35 |
| I4A | 3.97 |
| I4H | 4.85 |
| I4N | 2.62 |
| I4Q | 3.72 |
| I4P | 4.39 |
| I4C | 4.87 |
| I4K | 3.45 |
| I4F | 3.63 |

Variants of: B2
Assay: as above
Details: c terminus: a fixed tail appended

| Variant | protein stability index |
| --- | --- |
| K17P | 2.83 |
| K17F | 2.04 |
| K17W | 2.72 |
| K17I | 2.21 |
| K17C | 2.52 |
| K17H | 3.2 |
| K17D | 2.52 |
| K17M | 2.39 |
| K17R | 2.59 |
| K17E | 2.53 |
| K17L | 1.96 |
| K17A | 2.89 |
| K17Y | 2.29 |
| K17T | 2.67 |
| K17Q | 2.23 |
| K17G | 2.61 |
| K17S | 2.19 |
| K17V | 2.69 |
| K17N | 2.77 |
| K12G | 2.5 |
| K12C | 1.58 |
| K12W | 2.37 |
| K12M | 2.18 |
| K12H | 2.76 |
| K12N | 2.39 |

| Variant | protein stability index |
| --- | --- |
| K12L | 2.28 |
| K12I | 2.33 |
| K12D | 2.57 |
| K12R | 3.54 |
| K12Q | 2.57 |
| K12T | 2.57 |
| K12P | 3.25 |
| K12S | 2.54 |
| K12A | 2.52 |
| K12E | 2.86 |
| K12V | 2.31 |
| K12F | 1.79 |
| K12Y | 2.46 |
| G18F | 2.16 |
| G18C | 2.94 |
| G18Y | 2.35 |
| G18H | 3.23 |
| G18W | 2.3 |
| G18M | 2.18 |
| G18Q | 3.2 |
| G18E | 3.17 |
| G18V | 2.46 |
| G18N | 2.92 |
| G18R | 3.31 |
| G18A | 2.54 |

| Variant | protein stability index |
| --- | --- |
| G18K | 2.69 |
| G18P | 3.13 |
| G18D | 2.86 |
| G18S | 2.92 |
| G18L | 2.25 |
| G18I | 2.35 |
| G18T | 2.5 |
| L22I | 3.12 |
| L22G | 3.18 |
| L22K | 3.6 |
| L22Y | 2.54 |
| L22D | 3.01 |
| L22M | 2.6 |
| L22P | 2.41 |
| L22T | 2.93 |
| L22N | 3.01 |
| L22A | 3.12 |
| L22V | 3.23 |
| L22W | 2.08 |
| L22R | 3.31 |
| L22S | 3.29 |
| L22F | 2.58 |
| L22H | 2.88 |
| L22E | 3.48 |
| L22Q | 2.32 |

| Variant | protein stability index |
| --- | --- |
| L22C | 3.15 |
| V20M | 2.88 |
| V20T | 2.52 |
| V20Q | 3.31 |
| V20N | 2.97 |
| V20P | 3.05 |
| V20C | 3.68 |
| V20S | 3.11 |
| V20A | 2.85 |
| V20G | 2.18 |
| V20E | 2.8 |
| V20H | 3.51 |
| V20F | 1.93 |
| V20W | 2.06 |
| V20Y | 2.38 |
| V20R | 2.49 |
| V20I | 2.64 |
| V20D | 3.29 |
| V20K | 3.07 |
| V20L | 2.46 |
| Y15L | 3.1 |
| Y15I | 2.95 |
| Y15H | 4.01 |
| Y15C | 2.73 |
| Y15M | 3.11 |

| Variant | protein stability index |
| --- | --- |
| Y15A | 2.8 |
| Y15T | 3.13 |
| Y15G | 3.47 |
| Y15V | 2.94 |
| Y15Q | 2.9 |
| Y15N | 2.99 |
| Y15D | 3.06 |
| Y15K | 3.49 |
| Y15R | 3.31 |
| Y15W | 2.79 |
| Y15F | 2.73 |
| Y15P | 2.98 |
| Y15E | 3.12 |
| Y15S | 3.07 |
| D19N | 3.52 |
| D19E | 3.31 |
| D19F | 2.23 |
| D19G | 2.63 |
| D19I | 3.18 |
| D19L | 2.43 |
| D19Y | 2.56 |
| D19R | 3.41 |
| D19K | 3.14 |
| D19A | 3.15 |
| D19M | 2.84 |

| Variant | protein stability index |
| --- | --- |
| D19W | 2.56 |
| D19C | 3.07 |
| D19P | 2.66 |
| D19H | 2.88 |
| D19T | 2.97 |
| D19S | 2.38 |
| D19V | 2.07 |
| D19Q | 2.71 |
| C23S | 2.58 |
| C23K | 3.29 |
| C23T | 3.12 |
| C23N | 2.53 |
| C23Q | 1.9 |
| C23D | 3.3 |
| C23H | 3.1 |
| C23P | 2.52 |
| C23G | 2.88 |
| C23W | 1.85 |
| C23A | 2.95 |
| C23Y | 2.11 |
| C23M | 2.95 |
| C23E | 2.71 |
| C23I | 2.59 |
| C23V | 3.18 |
| C23L | 3.1 |

| Variant | protein stability index |
| --- | --- |
| C23R | 2.86 |
| C23F | 2.27 |
| Q10P | 3.13 |
| Q10V | 3.28 |
| Q10R | 2.75 |
| Q10S | 3.13 |
| Q10N | 2.64 |
| Q10T | 2.78 |
| Q10W | 2.69 |
| Q10M | 2.09 |
| Q10Y | 2.72 |
| V16Q | 2.63 |
| V16L | 2.98 |
| V16H | 2.77 |
| V16A | 3.11 |
| V16K | 2.75 |
| V16W | 2.31 |
| V16T | 2.74 |
| V16N | 2.52 |
| V16R | 3.4 |
| V16G | 2.55 |
| V16D | 2.73 |
| V16E | 2.81 |
| V16S | 2.93 |
| V16I | 2.5 |

| Variant | protein stability index |
| --- | --- |
| V16Y | 2.65 |
| V16C | 3.63 |
| V16F | 2.22 |
| V16M | 2.19 |
| V16P | 3.48 |
| R24Q | 3.91 |
| R24V | 3.34 |
| R24S | 3.39 |
| R24M | 3.09 |
| R24H | 3.42 |
| R24L | 2.52 |
| R24P | 4.39 |
| R24A | 2.9 |
| R24N | 3.46 |
| R24E | 4.08 |
| R24I | 2.46 |
| R24C | 3.58 |
| R24G | 3.11 |
| R24K | 4.33 |
| R24W | 2.27 |
| R24T | 3.05 |
| R24D | 3.82 |
| R24F | 2.51 |
| R24Y | 2.87 |
| K14Y | 2.12 |

| Variant | protein stability index |
| --- | --- |
| K14V | 2.2 |
| K14H | 2.29 |
| K14G | 2.48 |
| K14N | 2.54 |
| K14I | 2.19 |
| K14P | 2.85 |
| K14C | 1.84 |
| K14Q | 2.59 |
| K14L | 2 |
| K14W | 2.22 |
| K14S | 2.45 |
| K14R | 2.88 |
| K14D | 2.24 |
| K14T | 2.92 |
| K14F | 2.5 |
| K14M | 2.31 |
| K14E | 2.69 |
| K14A | 2.17 |
| K13T | 2.58 |
| K13P | 1.68 |
| K13Y | 2.16 |
| K13G | 2.68 |
| K13I | 2.05 |
| K13D | 2.63 |
| K13R | 2.6 |

| Variant | protein stability index |
| --- | --- |
| K13S | 2.63 |
| K13W | 2.65 |
| K13H | 2.35 |
| K13E | 2.69 |
| K13A | 2.51 |
| K13M | 2.47 |
| K13F | 2.55 |
| K13C | 2.23 |
| K13N | 2.66 |
| K13Q | 2.36 |
| K13V | 2.59 |
| K13L | 2.94 |
| S21Y | 2.18 |
| S21C | 4.63 |
| S21K | 2.87 |
| S21L | 2.22 |
| S21W | 2.16 |
| S21Q | 3.14 |
| S21I | 2.34 |
| S21P | 2.53 |
| S21D | 2.92 |
| S21E | 2.83 |
| S21T | 2.66 |
| S21N | 2.64 |
| S21M | 2.51 |

| Variant | protein stability index |
| --- | --- |
| S21G | 2.54 |
| S21V | 3.13 |
| S21H | 3.53 |
| S21F | 2.67 |
| S21A | 3.03 |
| S21R | 2.97 |
| C11R | 3.77 |
| C11N | 4.14 |
| C11Q | 3.75 |
| C11G | 3.91 |
| C11I | 3.01 |
| C11D | 4.4 |
| C11W | 2.12 |
| C11K | 4.09 |
| C11S | 4.07 |
| C11Y | 2.76 |
| C11M | 3.01 |
| C11V | 3.11 |
| C11P | 3.99 |
| C11A | 3.23 |
| C11H | 3.68 |
| C11E | 3.91 |
| C11T | 3.57 |
| C11L | 3.31 |
| C11F | 2.12 |
